Positions of bridges follow the written chain, without caps; N, C: chain ends. No end group written: not given here. fluorescein = Fluorescein label on the N-terminus, attached via Aca

The target in test [1] is T1, fibrin (Homo sapiens, UniProt P02671).
T1 chain 1: ADSGEGDFLAEGGGVR
T1 chain 2: QGVNDNEEGFFSAR
T1 chain 3: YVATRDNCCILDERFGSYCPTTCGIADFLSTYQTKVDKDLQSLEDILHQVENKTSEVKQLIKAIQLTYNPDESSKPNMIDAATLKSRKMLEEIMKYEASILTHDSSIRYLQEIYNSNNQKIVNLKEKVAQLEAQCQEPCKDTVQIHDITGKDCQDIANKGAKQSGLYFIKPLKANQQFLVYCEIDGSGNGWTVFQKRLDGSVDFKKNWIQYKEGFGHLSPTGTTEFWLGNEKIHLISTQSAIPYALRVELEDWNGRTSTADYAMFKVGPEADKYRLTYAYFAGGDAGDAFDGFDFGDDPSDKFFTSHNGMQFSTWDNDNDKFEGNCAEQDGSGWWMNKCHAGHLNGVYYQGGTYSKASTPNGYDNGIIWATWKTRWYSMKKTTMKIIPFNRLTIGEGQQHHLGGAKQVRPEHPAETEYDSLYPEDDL
The experiment in a line: fibrin plate depletion assay.

Test [2] addresses T2, DD(E) DD(E) (Homo sapiens, UniProt P02671).
T2 chain 1: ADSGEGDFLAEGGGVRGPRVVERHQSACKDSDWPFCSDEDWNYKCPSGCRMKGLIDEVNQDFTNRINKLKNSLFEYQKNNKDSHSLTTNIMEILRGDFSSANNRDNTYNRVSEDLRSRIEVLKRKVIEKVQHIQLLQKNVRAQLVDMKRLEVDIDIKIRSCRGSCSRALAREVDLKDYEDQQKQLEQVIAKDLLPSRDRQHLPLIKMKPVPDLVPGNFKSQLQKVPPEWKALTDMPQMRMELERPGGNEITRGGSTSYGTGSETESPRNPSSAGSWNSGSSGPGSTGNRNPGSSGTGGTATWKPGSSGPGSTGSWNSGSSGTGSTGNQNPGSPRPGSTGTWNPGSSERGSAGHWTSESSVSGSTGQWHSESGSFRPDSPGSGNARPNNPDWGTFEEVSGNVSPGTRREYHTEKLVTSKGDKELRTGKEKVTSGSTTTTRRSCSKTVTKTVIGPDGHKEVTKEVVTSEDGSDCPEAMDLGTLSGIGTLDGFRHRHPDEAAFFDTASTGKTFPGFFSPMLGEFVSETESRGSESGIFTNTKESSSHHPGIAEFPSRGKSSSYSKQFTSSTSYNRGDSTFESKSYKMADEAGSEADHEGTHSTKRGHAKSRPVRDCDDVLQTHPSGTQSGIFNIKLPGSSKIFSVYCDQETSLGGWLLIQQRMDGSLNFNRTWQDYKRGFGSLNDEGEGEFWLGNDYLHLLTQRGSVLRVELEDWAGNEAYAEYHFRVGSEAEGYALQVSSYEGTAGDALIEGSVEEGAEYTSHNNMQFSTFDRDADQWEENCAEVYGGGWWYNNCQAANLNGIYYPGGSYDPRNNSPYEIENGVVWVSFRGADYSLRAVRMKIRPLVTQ
T2 chain 2: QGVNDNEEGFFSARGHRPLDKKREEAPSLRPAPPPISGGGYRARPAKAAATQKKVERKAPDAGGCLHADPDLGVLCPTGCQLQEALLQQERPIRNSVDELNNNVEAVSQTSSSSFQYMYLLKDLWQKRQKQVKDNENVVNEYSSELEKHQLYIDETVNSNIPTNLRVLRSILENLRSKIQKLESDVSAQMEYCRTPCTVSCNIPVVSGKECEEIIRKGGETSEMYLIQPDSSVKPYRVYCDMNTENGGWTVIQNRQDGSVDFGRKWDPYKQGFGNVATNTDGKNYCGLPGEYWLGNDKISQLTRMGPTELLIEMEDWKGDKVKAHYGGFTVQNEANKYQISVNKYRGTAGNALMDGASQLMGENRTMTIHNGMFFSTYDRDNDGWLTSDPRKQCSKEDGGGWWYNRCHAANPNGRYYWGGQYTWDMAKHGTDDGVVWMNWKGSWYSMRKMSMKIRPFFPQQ
T2 chain 3: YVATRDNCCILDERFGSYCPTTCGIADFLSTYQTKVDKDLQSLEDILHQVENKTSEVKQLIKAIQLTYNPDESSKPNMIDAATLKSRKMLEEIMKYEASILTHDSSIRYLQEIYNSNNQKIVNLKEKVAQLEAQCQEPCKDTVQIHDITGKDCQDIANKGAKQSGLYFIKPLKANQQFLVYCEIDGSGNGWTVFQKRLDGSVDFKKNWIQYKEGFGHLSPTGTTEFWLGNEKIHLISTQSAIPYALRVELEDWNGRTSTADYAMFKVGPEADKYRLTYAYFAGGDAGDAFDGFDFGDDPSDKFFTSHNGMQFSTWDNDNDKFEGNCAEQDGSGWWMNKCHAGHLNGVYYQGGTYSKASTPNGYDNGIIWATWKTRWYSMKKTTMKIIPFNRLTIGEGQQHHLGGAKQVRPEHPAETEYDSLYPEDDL
Briefly: FP displacement.

In test [3] the target is T3, fibrinogen (Homo sapiens, UniProt P02671).
T3 chain 1: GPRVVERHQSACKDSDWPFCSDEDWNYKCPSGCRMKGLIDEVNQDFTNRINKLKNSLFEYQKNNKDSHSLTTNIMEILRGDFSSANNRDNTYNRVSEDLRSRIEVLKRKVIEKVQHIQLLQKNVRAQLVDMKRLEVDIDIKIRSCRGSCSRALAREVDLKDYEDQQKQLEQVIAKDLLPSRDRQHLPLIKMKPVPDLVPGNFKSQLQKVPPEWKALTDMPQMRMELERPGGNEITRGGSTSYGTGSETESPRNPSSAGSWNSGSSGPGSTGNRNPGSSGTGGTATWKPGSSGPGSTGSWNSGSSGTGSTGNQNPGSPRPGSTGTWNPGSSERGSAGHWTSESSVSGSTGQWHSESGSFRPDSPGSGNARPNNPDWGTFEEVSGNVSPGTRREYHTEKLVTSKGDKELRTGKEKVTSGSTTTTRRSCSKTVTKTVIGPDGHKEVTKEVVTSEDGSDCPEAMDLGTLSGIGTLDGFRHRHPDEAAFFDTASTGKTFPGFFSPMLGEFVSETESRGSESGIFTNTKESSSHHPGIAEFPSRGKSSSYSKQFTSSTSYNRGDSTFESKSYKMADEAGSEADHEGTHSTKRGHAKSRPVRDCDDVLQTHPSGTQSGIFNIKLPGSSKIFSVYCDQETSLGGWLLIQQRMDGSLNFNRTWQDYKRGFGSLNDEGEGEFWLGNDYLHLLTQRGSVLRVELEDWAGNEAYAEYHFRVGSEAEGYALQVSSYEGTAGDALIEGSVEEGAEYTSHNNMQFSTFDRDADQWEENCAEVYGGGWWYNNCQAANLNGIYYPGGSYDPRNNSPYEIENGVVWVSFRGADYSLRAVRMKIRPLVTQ
T3 chain 2: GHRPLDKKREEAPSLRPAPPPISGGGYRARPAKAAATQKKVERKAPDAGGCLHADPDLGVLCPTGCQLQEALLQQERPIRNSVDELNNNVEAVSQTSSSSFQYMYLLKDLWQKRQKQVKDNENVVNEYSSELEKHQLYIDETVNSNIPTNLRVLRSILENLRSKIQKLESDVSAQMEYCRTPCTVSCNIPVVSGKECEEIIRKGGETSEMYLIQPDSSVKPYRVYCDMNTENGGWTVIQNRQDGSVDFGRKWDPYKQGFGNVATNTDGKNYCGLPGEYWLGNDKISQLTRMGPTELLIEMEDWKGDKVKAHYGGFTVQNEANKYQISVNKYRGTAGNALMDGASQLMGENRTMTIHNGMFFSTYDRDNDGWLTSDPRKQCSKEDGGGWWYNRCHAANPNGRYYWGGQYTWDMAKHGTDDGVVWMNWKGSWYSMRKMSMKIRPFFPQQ
T3 chain 3: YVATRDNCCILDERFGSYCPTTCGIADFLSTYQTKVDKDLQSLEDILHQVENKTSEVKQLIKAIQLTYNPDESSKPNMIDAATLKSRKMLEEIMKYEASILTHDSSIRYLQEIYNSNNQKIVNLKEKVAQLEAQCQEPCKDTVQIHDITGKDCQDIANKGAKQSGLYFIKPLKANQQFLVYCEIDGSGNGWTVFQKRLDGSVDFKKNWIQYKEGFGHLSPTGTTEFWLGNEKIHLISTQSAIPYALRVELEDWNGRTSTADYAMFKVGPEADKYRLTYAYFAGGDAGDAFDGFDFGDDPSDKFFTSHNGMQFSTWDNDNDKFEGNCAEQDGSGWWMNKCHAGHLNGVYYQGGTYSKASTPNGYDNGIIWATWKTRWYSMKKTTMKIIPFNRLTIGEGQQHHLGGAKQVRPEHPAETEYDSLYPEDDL
The experiment in a line: ITC. In general terms: In ITC the heat of successive injections is recorded.

Test [4] deals with T3, fibrinogen. The experiment in a line: FP displacement.
The target of test [5] is T3, fibrinogen. Briefly: fluorescence polarization.
The target in test [6] is T2, DD(E) DD(E). Briefly: fluorescence polarization.

B1: Tn7-3b-Gd (peptide)
chain: GLPCDYYGTCLD-NH2
modifications: disulfide 4-10; not fully specified (N-terminus); also: Gd(III) chelated by DTPA
With B1, the Kd in test [1] worked out at 8.4 µM.

LPCDYYGTCLD-NH2 (disulfide 3-9; not fully specified (N-terminus); also: Gd(III) chelated by DTPA) [Tn7-3a-Gd] displayed an inhibition constant Ki in test [2] of 2.9 µM.

On to WECPYGLCWIQ [Tn6-2a], for which the dissociation constant (Kd) was 2.9 µM in test [1] and greater than 50 µM in test [3].

WFHCPYDLCHIL [Tn6-1] showed a dissociation constant Kd in test [4] greater than 200 µM.

Take {fluorescein-Aca}-QWECPYGLCWIQ (cysteine pairing not given here) [Tn6-2b-Fl]: the equilibrium dissociation constant (Kd) in test [5] amounted to 22 µM; in test [6], 0.057 µM.

B2: Tn6-1-Gd (peptide)
chain: GGWFHCPYDLCHIL-NH2
modifications: disulfide 6-11; not fully specified (N-terminus); also: Gd(III) chelated by DTPA
Turning to B2, in test [1], binding was put at a Kd of 3.1 µM.

LPCDYYGTCLD [Tn7-3] came in with a Kd in test [3] greater than 20 µM.

The Kd is the constant that tells how readily two partners part at equilibrium. A lower Kd goes with a tighter complex. A word on the Ki: it is the equilibrium dissociation constant of an inhibitor or competing ligand from its target. Low values mean tighter binding, high ones weaker binding.

Values taken from PMC3310290 (2012).
